In PMC11620640:

These substances were tested against SARS-CoV-2 Omicron BA.2 spike RBD (UniProt P0DTC2) (assay: SPR).
Work on “raccoon dog ACE2 (rdACE2), peptidase domain (PD), wild type (from UniProt B4XEP4) R353K” yielded a Kd of 0.136 µM.
In the case of “raccoon dog ACE2 (rdACE2), peptidase domain (PD), wild type (from UniProt B4XEP4) L24Q”, the Kd is reported as 0.283 µM.
With “raccoon dog ACE2 (rdACE2), peptidase domain (PD), wild type (from UniProt B4XEP4) E38D” the Kd was 0.245 µM.
